Measurements taken from patent publication US20190225669A1 (ACCELERON PHARMA, published 2019).
Read-outs that look alike come from different tables or passages of the source.

B1: ALK3-Fc homodimer (Fc fusion, UniProt P36894 24-152, looked up, not shown: a dimerising Fc or GST)
chain: QNLDSMLHGTGMKSDSDQKKSENGVTLAPEDTLPFLKCYCSGHCPDDAINNTCITNGHCFAIIEEDDQGETTLASGCMKYEGSDFQCKDSPKAQLRRTIECCRTNLCNQYLQPTLPPVVIGPFFDGSIR
notes: extracellular domain

Tests used:
Assay in all cases: Biacore SPR
[1] = biological target: T1, BMP5 (UniProt P22003 317-454, limits assumed)
T1 sequence (looked up): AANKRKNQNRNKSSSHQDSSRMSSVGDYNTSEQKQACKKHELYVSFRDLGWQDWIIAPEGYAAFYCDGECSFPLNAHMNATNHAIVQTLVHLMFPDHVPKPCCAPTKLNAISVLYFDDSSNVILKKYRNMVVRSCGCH
Description: (§1) Ligands were injected and allowed to flow over the captured receptor protein.

[2] = biological target: T2, BMP6 (UniProt P22004 382-513, limits assumed)
T2 sequence (looked up): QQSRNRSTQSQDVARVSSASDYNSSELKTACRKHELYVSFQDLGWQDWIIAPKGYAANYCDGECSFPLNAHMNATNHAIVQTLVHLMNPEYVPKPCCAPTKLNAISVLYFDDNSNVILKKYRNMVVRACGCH
Description: as §1

[3] = biological target: T1, BMP5; remark: listed apart in the source
Description: as §1

[4] = biological target: T2, BMP6; remark: listed apart in the source
Description: as §1

[5] = biological target: B1
Description: as §1

[6] = biological target: B1; remark: listed apart in the source
Description: as §1

[7] = biological target: T3, ActRIIB-Fc homodimer (UniProt Q13705 19-137)
T3 construct: extracellular domain; also called ActRIIB homodimer
T3 sequence (looked up): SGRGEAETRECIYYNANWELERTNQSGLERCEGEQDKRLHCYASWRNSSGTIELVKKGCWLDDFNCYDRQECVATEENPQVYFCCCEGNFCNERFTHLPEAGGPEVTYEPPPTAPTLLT
Description: as §1

[8] = biological target: T3, ActRIIB-Fc homodimer; remark: listed apart in the source
Description: as §1

[9] = biological target: T3, ActRIIB-Fc homodimer; remark: listed apart in the source
Description: as §1

[10] = biological target: T3, ActRIIB-Fc homodimer; remark: listed apart in the source
Description: as §1

[11] = biological target: T3, ActRIIB-Fc homodimer; remark: listed apart in the source
Description: as §1

[12] = biological target: T4, ActRIIA-Fc homodimer (UniProt P27037 20-135)
T4 construct: extracellular domain
Description: as §1

[13] = biological target: T5, BMPRII-Fc homodimer (UniProt Q13873 27-150)
T5 construct: extracellular domain
T5 sequence (looked up): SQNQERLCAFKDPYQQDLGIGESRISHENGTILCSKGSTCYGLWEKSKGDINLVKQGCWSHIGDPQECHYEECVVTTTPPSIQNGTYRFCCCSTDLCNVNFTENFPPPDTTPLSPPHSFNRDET
Description: A Biacore™-based binding assay was used to compare ligand binding selectivity of the BMPRII-Fc:ALK2-Fc heterodimeric complex described above with that of BMPRII-Fc and ALK2-Fc homodimeric complexes. […] Ligands were injected and allowed to flow over the captured receptor protein.

[14] = biological target: T5, BMPRII-Fc homodimer; remark: listed apart in the source
Description: as §1

[15] = biological target: T5, BMPRII-Fc homodimer; remark: listed apart in the source
Description: as §1

[16] = biological target: T5, BMPRII-Fc homodimer; remark: listed apart in the source
Description: as §1

T4 sequence (P27037 20-135): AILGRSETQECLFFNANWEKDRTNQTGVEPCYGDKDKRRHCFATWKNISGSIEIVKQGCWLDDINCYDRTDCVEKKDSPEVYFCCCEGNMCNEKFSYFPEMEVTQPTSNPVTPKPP

Row | Binder | Kd [7] [nM] | koff [7] [s⁻¹] | kon [7] [M⁻¹ s⁻¹] | Kd [8] [nM] | koff [8] [s⁻¹] | kon [8] [M⁻¹ s⁻¹] | binding result [5] | Kd [9] [nM] | koff [9] [s⁻¹] | kon [9] [M⁻¹ s⁻¹] | Kd [10] [nM] | koff [10] [s⁻¹] | kon [10] [M⁻¹ s⁻¹] | Kd [11] [nM] | koff [11] [s⁻¹] | kon [11] [M⁻¹ s⁻¹] | Kd [12] [nM] | koff [12] [s⁻¹] | kon [12] [M⁻¹ s⁻¹] | Kd [13] [nM] | other results
1 | B1 |  |  |  |  |  |  |  |  |  |  |  |  |  |  |  |  |  |  |  |  | Kd [1]: 70 nM; koff [1]: 0.002 s⁻¹; kon [1]: 29000 M⁻¹ s⁻¹; Kd [2]: 35 nM; koff [2]: 0.0049 s⁻¹; kon [2]: 140000 M⁻¹ s⁻¹; Kd [3]: 70 nM; koff [3]: 0.0023 s⁻¹; kon [3]: 29000 M⁻¹ s⁻¹; Kd [4]: 35 nM; koff [4]: 0.0049 s⁻¹; kon [4]: 140000 M⁻¹ s⁻¹
2 | GDF5 (ligand, UniProt P43026 382-501, looked up, also called BMP14) APLATRQGKRPSKNLKARCSRKALHVNFKDMGWDDWIIAPLEYEAFHCEGLCEFPLRSHLEPTNHAVIQTLMNSMDPESTPPTCCVPTRLSPISILFIDSANNVVYKQYEDMVVESCGCR |  |  |  |  |  |  |  |  |  |  |  |  |  |  |  |  |  |  |  |  | Kd [5]: 22 nM; koff [5]: 0.011 s⁻¹; kon [5]: 480000 M⁻¹ s⁻¹; Kd [6]: 22 nM; koff [6]: 0.011 s⁻¹; kon [6]: 430000 M⁻¹ s⁻¹
3 | GDF3 (ligand, UniProt Q9NR23 251-364, looked up) AAIPVPKLSCKNLCHRHQLFINFRDLGWHKWIIAPKGFMANYCHGECPFSLTISLNSSNYAFMQALMHAVDPEIPQAVCIPTKLSPISMLYQDNNDNVILRHYEDMVVDECGCG | 1.5 | 0.0022 | 1.4e+06 | 1.4 | 0.0023 | 1.6e+06 | no binding | 1.5 | 0.0022 | 1.4e+06 | 1.7 | 0.002 | 1.2e+06 | 3.9 | 0.0018 | 470000 | 2.4 | 0.0036 | 1.5e+06 |  | 
4 | activin B (ligand, UniProt P09529 293-407, looked up) GLECDGRTNLCCRQQFFIDFRLIGWNDWIIAPTGYYGNYCEGSCPAYLAGVPGSASSFHTAVVNQYRMRGLNPGTVNSCCIPTKLSTMSMLYFDDEYNIVKRDVPNMIVEECGCA | 0.02 | 0.0001 | 5.1e+06 | 0.02 | 0.0001 | 5.1e+06 | no binding | 0.008 | 0.00016 | 1.5e+07 | 0.028 | 0.00011 | 3.8e+06 | 0.02 | 0.0001 | 5.1e+06 | 0.01 | 0.00011 | 1.1e+07 | 2.6 | koff [13]: 0.0049 s⁻¹; kon [13]: 1.9e+06 M⁻¹ s⁻¹; Kd [14]: 3.8 nM; koff [14]: 0.075 s⁻¹; kon [14]: 2e+07 M⁻¹ s⁻¹; Kd [15]: 3.8 nM; koff [15]: 0.075 s⁻¹; kon [15]: 2e+07 M⁻¹ s⁻¹
5 | BMP10 (ligand, UniProt O95393 317-424, looked up) NAKGNYCKRTPLYIDFKEIGWDSWIIAPPGYEAYECRGVCNYPLAEHLTPTKHAIIQALVHLKNSQKASKACCVPTKLEPISILYLDKGVVTYKFKYEGMAVSECGCR | 0.011 | 0.00026 | 2.3e+07 | 0.004 | 0.0002 | 5.9e+07 | no binding | 0.025 | 0.00015 | 5.9e+06 | 0.005 | 0.00028 | 5.4e+07 | 0.018 | 0.00038 | 2.1e+07 | 0.085 | 0.0025 | 2.9e+07 | 0.13 | Kd [16]: 0.1 nM; koff [16]: 0.0025 s⁻¹; kon [16]: 2.6e+07 M⁻¹ s⁻¹; koff [13]: 0.005 s⁻¹; kon [13]: 3.8e+07 M⁻¹ s⁻¹; Kd [14]: 0.1 nM; koff [14]: 0.0025 s⁻¹; kon [14]: 2.6e+07 M⁻¹ s⁻¹; Kd [15]: 0.1 nM; koff [15]: 0.0025 s⁻¹; kon [15]: 2.6e+07 M⁻¹ s⁻¹
6 | GDF11 (ligand, UniProt O95390 299-407, looked up, also called BMP11) NLGLDCDEHSSESRCCRYPLTVDFEAFGWDWIIAPKRYKANYCSGQCEYMFMQKYPHTHLVQQANPRGSAGPCCTPTKMSPINMLYFNDKQQIIYGKIPGMVVDRCGCS | 0.002 | 0.00011 | 5e+07 | 0.002 | 0.00011 | 5e+07 | no binding | 0.002 | 0.00015 | 9.6e+07 | 0.11 | 0.00022 | 2e+06 | 0.074 | 0.00014 | 1.9e+06 | 0.013 | 0.00092 | 7.3e+07 |  | 
